B1: TPR 5TU (parent)
chain: GGAUCUUCUCGAUCUAACAAAAAAGACAAAUCUGCCACAAAGCUUGAGAGCAUCUUCGGAUGCAGAGGCGGCAGCCUUCGGUGGCGCGAUAGCGCCAACGUUCUCAACUAUGACACGCAAAACGCGUGCUCCGUUGAAUGGAGUUUAUCAUG

Variants at the floor of the assay were thinned out.

Results on 19 variants are retold here after the RNAGym collection of RNA variant scans (doi:10.1073/pnas.2313332121).

This data set covers variants of B1. As to the kind of experiment: polymerase ribozyme fitness, log enrichment relative to wild type (log ratio); higher = more active; in vitro selection for triplet polymerase activity. The gist of the method:
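Mutant libraries for each subunit of a heterodimeric triplet polymerase ribozyme were made by PCR and then transcribed. Each library underwent one round of in vitro selection in triplicate: annealing with a biotinylated primer, the partner subunit and triplets, frozen incubation at −7 °C, gel excision of extended constructs, streptavidin-bead capture and RT-PCR. Input and output libraries were Illumina-sequenced, and only genotypes with ≥10 input reads and ≥1 read per output were kept. Fitness is the logarithm, base 2, of genotype enrichment over wild-type enrichment, computed from inverse-variance-weighted replicate averages.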
On to GGAUCUUCUCGAUCUAACAAAAAAGACAAAUCUGCCACAAAGCUUGAGAGCAUCUUCGGAUGCAGAGGCGGCAGCCUUCGGUGUCGCGAUAGCGCCAACGUUCUCAACUAUGACACGCAAAACGCGUGCUCCGAUGAAUGGAGCUUAUCUUG, for which the “polymerase ribozyme fitness (log ratio)” value was not above -4.2.

For the variant GGAUCUUCUCGAUCUAACAAAAAAGACAAAUCUGCCACAAAGCUUGAGAGCAUCUUCGGAUGCAGAGGCGGCAGCCUUCGGUGGAGCGAUAGCGCAAACGUUCUCAACUAUGACACGCAAAACGCGUCCUCCGUUGAAUGGAGUUUAUCAUG, the “polymerase ribozyme fitness (log ratio)” value was -4.03.

On to GGAUCUUCUCGAUCUAACAAAAAAGACAAAUCUGCCACAAAGCUUGAGAGCAUCUUCGGAUGCAGAGGCGGCAGCCUUCGGUGGAGCGAUAGCGCCAACGUUCUCCACUAUGACACGCAAAACGCGUGCUCCGUUGAAUCGAGUUUAUCAUG, for which the “polymerase ribozyme fitness (log ratio)” value was not above -4.2.

Take GGAUCUUCUCGAUCUAACAAAAAAGACAAAUCUGCCACAAAGCUUGAGAGCAUCUUCGGAUGCAGAGGCGGCAGCCUUCGGUGUCGCGAUAGCGCCAACGUUCUCAACUAUGACACGCAAAACGCGUGCUCCGUUGAAUGCAGAUUAUCAUG: the “polymerase ribozyme fitness (log ratio)” value is not above -4.2.

Turning to GGAUCUUCUCGAUCUAACAAAAAAGACAAAUCUGCCACAAAGCUUGAGAGCAUCUUCGGAUGCAGAGGCGGCAGCCUUCGGUGGAGCGAUAGCGCAAACGCUCUCAACUAUGACACGCAAAACGCGUGCUCCGUUGAAUGGAAUUUAUCAUG, the “polymerase ribozyme fitness (log ratio)” value is not above -4.2.

As for GGAUCUUCUCGAUCUAACAAAAAAGACAAAUCUGCCACAAAGCUUGAGAGCAUCUUCGGAUGCAGAGGCGGCAGCCUUCGGUGUCGCGAUAGCGCCAACGUUCUCAACUAUGACACGCAAAACGCGUGCUCCGUUGAAUGCAGUUUAUCAUG, the “polymerase ribozyme fitness (log ratio)” value was -2.49.

Regarding GGAUCUUCUCGAUCUAACAAAAAAGACAAAUCUGCCACAAAGCUUGAGAGCAUCUUCGGAUGCAGAGGCGGCAGCCUUCGGUGGAGCGAUAGCGCCAACGUUCUUAACUAUGACACGCAAAACGCGUGCUCCGUUGAAUGGAGUUUAUCGUG, the “polymerase ribozyme fitness (log ratio)” value is -2.08.

GGAUCUUCUCGAUCUAACAAAAAAGACAAAUCUGCCACAAAGCUUGAGAGCAUCUUCGGAUGCAGAGGCGGCAGCCUUCGGUGGAGCGAUAGCGCGAACGUUCUCAACUAUGACACGCAAAACGCGUGCUCCGUUGAAUGGAGUUUAUCAUG: the “polymerase ribozyme fitness (log ratio)” value was -2.42.

In the case of GGAUCUUCUCGAUCUAACAAAAAAGACAAAUCUGCCACAAAGCUUGAGAGCAUCUUCGGAUGCAGAGGCGGCAGCCUUCGGUGGAGCGAUAGCGCUAACGUUCUCAACUAUGACACGCAAAACGCGUGCUCCGUUGAAUGGAGUUUAUCAUG, the “polymerase ribozyme fitness (log ratio)” value was -2.63.

Turning to GGAUCUUCUCGAUCUAACAAAAAAGACAAAUCUGCCACAAAGCUUGAGAGCAUCUUCGGAUGCAGAGGCGGCAGCCUUCGGUGGAGCGAUAGCGCCUACGUUCUCAACUAUGACACGCAAAACGCGUGCUCCGUUGAAUGGAGUUUAUCAUG, the “polymerase ribozyme fitness (log ratio)” value is -2.65.

For the variant GGAUCUUCUCGAUCUAACAAAAAAGACAAAUCUGCCACAAAGCUUGAGAGCAUCUUCGGAUGCAGAGGCGGCAGCCUUCGGUGUCGCGAUAGCGCCAACGUGCUCAACUGUGACACGCAAAACGCGUGCUCCGUUGAAUGGAGUUUAUCAUG, the “polymerase ribozyme fitness (log ratio)” value is not above -4.2.

As to GGAUCUUCUCGAUCUAACAAAAAAGACAAAUCUGCCACAAAGCUUGAGAGCAUCUUCGGAUGCAGAGGCGGCAGCCUUCGGUGGAGGCAUAGCGCCGACGUUCUCAACUAUGACACGCAAAACGCGUGCGCCGUUGAAUGCAGUUUAUCAUG, the “polymerase ribozyme fitness (log ratio)” value was not above -4.2.

Take GGAUCUUCUCGAUCUAACAAAAAAGACAAAUCUGCCACAAAGCUUGAGAGCAUCUUCGGAUGCAGAGGCGGCAGCCUUCGGUGGAGCGAUAGCGCCAACGUUUUCAACUAUGACACGCAAAAGGCGUGCUCCGUUGAAUGGAGUUUUUCAUG: the “polymerase ribozyme fitness (log ratio)” value was -0.703.

As for GGAUCUUCUCGAUCUAACAAAAAAGACAAAUCUGCCACAAAGCUUGAGAGCAUCUUCGGAUGCAGAGGCGGCAGCCUUCGGUGUCGCGAUAGCGCCAACGUUCUCAACUAUGACACGCAAAACGCAUGCUCCGUUUAAUGGAGUUUAUCAUG, the “polymerase ribozyme fitness (log ratio)” value is -3.56.

In the case of GGAUCUUCUCGAUCUAACAAAAAAGACAAAUCUGCCACAAAGCUUGAGAGCAUCUUCGGAUGCAGAGGCGGCAGCCUUCGGUGGAGCGAUAGCGCCAACGUUAUCAACUAUGACACGCAAAACGCGUGCUCCGUUGAAUGGAGUUUAUCAUG, the “polymerase ribozyme fitness (log ratio)” value is -4.12.

Regarding GGAUCUUCUCGAUCUAACAAAAAAGACAAAUCUGCCACAAAGCUUGAGAGCAUCUUCGGAUGCAGAGGCGGCAGCCUUCGGUGGAGCGAUAGCGCCAACGUUGUCAACUAUGACACGCAAAACGCGUGCUCCGUUGAAUGGAGUUUAUCAUG, the “polymerase ribozyme fitness (log ratio)” value was -3.36.

As for GGAUCUUCUCGAUCUAACAAAAAAGACAAAUCUGCCACAAAGCUUGAGAGCAUCUUCGGAUGCAGAGGCGGCAGCCUUCGGUGGAGCGAUAGCGCCAACGUUCUCAACUAUGACGCGCAAAACGCGUGCUCCGUUGAAUGGAGUUUAUCAUG, the “polymerase ribozyme fitness (log ratio)” value is -2.38.

GGAUCUUCUCGAUCUAACAAAAAAGACAAAUCUGCCACAAAGCUUGAGAGCAUCUUCGGAUGCAGAGGCGGCAGCCUUCGGUGGAGCGAUAGCGCCAACGUUAUCAACUAUGACACGCAAAACGAGUGCUCCGUUGAAUGGAGUUUAUCAUG: the “polymerase ribozyme fitness (log ratio)” value was -3.33.

In the case of GGAUCUUCUCGAUCUAACAAAAAAGACAAAUCUGCCACAAAGCUUGAGAGCAUCUUCGGAUGCAGAGGCGGCAGCCUUCGGUGGAGCGAUAGCGUCAACGUUCUCAACUAUGACACGCAAAACGCGUGCUCCGUUGAAUGGAGUUUAUCAUG, the “polymerase ribozyme fitness (log ratio)” value was -1.98.
